# Source: US6869925 (Amgen, dated 2005)
# What was measured:
# [1] = biological target: SLPI binding sites on U937 cells (human monocyte cell line; intact cells, PMA-induced cells or plasma membranes) (human); test: competition with 125I-SLPI, intact U937 cells, cold SLPI at 0.078 nM
# [2] = biological target: SLPI binding sites on U937 cells (human monocyte cell line; intact cells, PMA-induced cells or plasma membranes) (human); test: competition with 125I-SLPI, intact U937 cells, competitor at 26 nM
# [3] = biological target: SLPI binding sites on U937 cells (human monocyte cell line; intact cells, PMA-induced cells or plasma membranes) (human); test: 125I-SLPI saturation binding, U937 cells plus PMA, *SLPI at 80 pM
# [4] = biological target: SLPI binding sites on U937 cells (human monocyte cell line; intact cells, PMA-induced cells or plasma membranes) (human); test: 125I-SLPI saturation binding, U937 cells plus PMA, *SLPI at 640 pM
# [5] = biological target: SLPI binding sites on HuT78 cells (human T cell line) (human); test: 125I-SLPI saturation binding, intact HuT78 cells, *SLPI at 10,240 pM
# [6] = biological target: SLPI binding sites on U937 cells (human monocyte cell line; intact cells, PMA-induced cells or plasma membranes) (human); test: competition with 125I-SLPI, intact U937 cells, competitor at 8.2 nM
# [7] = biological target: SLPI binding sites on U937 cells (human monocyte cell line; intact cells, PMA-induced cells or plasma membranes) (human); test: competition with 125I-SLPI, U937 plasma membranes, competitor at 8.20 nM
# [8] = biological target: SLPI binding sites on HuT78 cells (human T cell line) (human); test: competition with 125I-SLPI, intact HuT78 cells, cold SLPI at 0.80 nM
# [9] = biological target: SLPI binding sites on U937 cells (human monocyte cell line; intact cells, PMA-induced cells or plasma membranes) (human); test: 125I-SLPI saturation binding, intact U937 cells, *SLPI at 20,480 pM
# [10] = biological target: SLPI binding sites on U937 cells (human monocyte cell line; intact cells, PMA-induced cells or plasma membranes) (human); test: competition with 125I-SLPI, U937 plasma membranes, Kd by Cheng-Prusoff
# [11] = biological target: SLPI binding sites on HuT78 cells (human T cell line) (human); test: 125I-SLPI saturation binding, intact HuT78 cells, *SLPI at 640 pM
# [12] = biological target: SLPI binding sites on U937 cells (human monocyte cell line; intact cells, PMA-induced cells or plasma membranes) (human); test: competition with 125I-SLPI, intact U937 cells, cold SLPI at 84 nM
# [13] = biological target: SLPI binding sites on U937 cells (human monocyte cell line; intact cells, PMA-induced cells or plasma membranes) (human); test: Scatchard plot of 125I-SLPI saturation binding, intact U937 cells
# [14] = biological target: SLPI binding sites on U937 cells (human monocyte cell line; intact cells, PMA-induced cells or plasma membranes) (human); test: 125I-SLPI saturation binding, U937 cells minus PMA, *SLPI at 5120 pM
# [15] = biological target: SLPI binding sites on U937 cells (human monocyte cell line; intact cells, PMA-induced cells or plasma membranes) (human); test: competition with 125I-SLPI, intact U937 cells, competitor at 270 nM
# [16] = biological target: SLPI binding sites on HuT78 cells (human T cell line) (human); test: competition with 125I-SLPI, intact HuT78 cells, cold SLPI at 0.024 nM
# [17] = biological target: SLPI binding sites on U937 cells (human monocyte cell line; intact cells, PMA-induced cells or plasma membranes) (human); test: competition with 125I-SLPI, intact U937 cells, cold SLPI at 8.2 nM
# [18] = biological target: SLPI binding sites on U937 cells (human monocyte cell line; intact cells, PMA-induced cells or plasma membranes) (human); test: 125I-SLPI saturation binding, intact U937 cells, *SLPI at 1280 pM
# [19] = biological target: SLPI binding sites on HuT78 cells (human T cell line) (human); test: 125I-SLPI saturation binding, intact HuT78 cells, *SLPI at 160 pM
# [20] = biological target: SLPI binding sites on HuT78 cells (human T cell line) (human); test: competition with 125I-SLPI, intact HuT78 cells, competitor at 8.2 nM
# [21] = biological target: SLPI binding sites on HuT78 cells (human T cell line) (human); test: 125I-SLPI saturation binding, intact HuT78 cells, *SLPI at 320 pM
# [22] = biological target: SLPI binding sites on U937 cells (human monocyte cell line; intact cells, PMA-induced cells or plasma membranes) (human); test: 125I-SLPI saturation binding, U937 cells minus PMA, *SLPI at 80 pM
# [23] = biological target: SLPI binding sites on U937 cells (human monocyte cell line; intact cells, PMA-induced cells or plasma membranes) (human); test: 125I-SLPI saturation binding, U937 cells minus PMA, *SLPI at 2560 pM
# [24] = biological target: SLPI binding sites on U937 cells (human monocyte cell line; intact cells, PMA-induced cells or plasma membranes) (human); test: competition with 125I-SLPI, intact U937 cells, cold SLPI at 270 nM
# [25] = biological target: SLPI binding sites on HuT78 cells (human T cell line) (human); test: competition with 125I-SLPI, intact HuT78 cells, cold SLPI at 860 nM
# Chain of serine leukocyte protease inhibitor (SLPI) (P03973 26-132): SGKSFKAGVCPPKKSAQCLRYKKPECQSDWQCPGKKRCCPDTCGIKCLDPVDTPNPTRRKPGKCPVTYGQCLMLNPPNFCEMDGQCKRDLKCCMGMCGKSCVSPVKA
substance,measurement,setting,value
serine leukocyte protease inhibitor (SLPI) (from UniProt P03973 26-132),% *SLPI BOUND,[1],101%
same,% *SLPI BOUND,[2],11%
same,bound pM,[3],32 pM
same,bound per free,[3],0.67
same,sites bound per cell (sites per cell),[3],1910
same,specific cpm,[3],339 cpm
same,bound pM,[4],103 pM
same,bound per free,[4],0.192
same,sites bound per cell (sites per cell),[4],6200
same,specific cpm,[4],1100 cpm
same,bound pM,[5],32.7 pM
same,bound per free,[5],0.0032
same,sites bound per cell (sites per cell),[5],1970
same,specific cpm,[5],1300 cpm
same,% *SLPI BOUND,[6],22%
same,CPM *SLPI BOUND,[7],5710 cpm
same,% *SLPI BOUND,[8],62%
same,bound *SLPI (pM),[9],471 pM
same,bound per free,[9],0.024
same,sites bound per cell (sites per cell),[9],28400
same,specific cpm,[9],18800 cpm
same,Kd,[10],2 nM
same,bound pM,[11],2.53 pM
same,bound per free,[11],0.0039
same,sites bound per cell (sites per cell),[11],152
same,specific cpm,[11],101 cpm
same,% *SLPI BOUND,[12],3.5%
same,Kd,[13],2 nM
same,bound *SLPI (pM),[14],748 pM
same,bound per free,[14],0.171
same,sites bound per cell (sites per cell),[14],45100
same,specific cpm,[14],7990 cpm
same,% *SLPI BOUND,[15],5%
same,% *SLPI BOUND,[16],88%
same,% *SLPI BOUND,[17],24%
same,bound *SLPI (pM),[18],217 pM
same,bound per free,[18],0.204
same,sites bound per cell (sites per cell),[18],13100
same,specific cpm,[18],8650 cpm
same,bound pM,[19],0.93 pM
same,bound per free,[19],0.0058
same,sites bound per cell (sites per cell),[19],56
same,specific cpm,[19],37 cpm
same,% *SLPI BOUND,[20],57%
same,bound pM,[21],2.53 pM
same,bound per free,[21],0.0079
same,sites bound per cell (sites per cell),[21],152
same,specific cpm,[21],101 cpm
same,bound *SLPI (pM),[22],37 pM
same,bound per free,[22],0.86
same,sites bound per cell (sites per cell),[22],2230
same,specific cpm,[22],400 cpm
same,bound *SLPI (pM),[23],593 pM
same,bound per free,[23],0.301
same,sites bound per cell (sites per cell),[23],35700
same,specific cpm,[23],6340 cpm
same,% *SLPI BOUND,[24],0%
same,% *SLPI BOUND,[25],8.7%
